These results are taken from PMC11672684 (Cell Reports, 2024).

Assay [1] has as its target T1, H1 A/New Caledonia/20/1999 HA (influenza A virus A/New …). The assay can be described thus: ELISA + BLI. As to conditions: both partners purified. (An ELISA detects its analyte on a solid surface through an enzyme-linked reagent.)
The target in assay [2] is T1, H1 A/New Caledonia/20/1999 HA. The assay can be described thus: cryo-EM structure. As to conditions: both partners purified.

B1: 43_S0008 (antibody, V domains shown)
VH: QVQLVQSGAEVKKPGSSVKVSCKASGGTFRTFGISWVRQAPGQGLEWMGWIIPIIGTPNYAQKFQGRVIITADESSNTAYMELNSLKSEDTAVYYCAKEGRALLRYFDWLPLDAFDIWGQGTMVTVSS
VL: DIVLTQTPLSLPVSLGDQASISCRSSQSLVHSDGNTYLHWYLQKPGQSPKLLIYKVSNRFSGVPDRFSGSGSGTDFTLKISRVEAEDLGVYFCSQSTHVPPLTFGAGTKLELK
notes: also called mAb 43_S0008; IGHV1-69 + IGHD3-9 mAb 43_S0008; source: Expi293 cells, purified (protein A)
In the case of B1, the binding result in assay [1] is listed as “binds”.

B2: Fab 43_S0008 (Fab, V domains shown)
VH: QVQLVQSGAEVKKPGSSVKVSCKASGGTFRTFGISWVRQAPGQGLEWMGWIIPIIGTPNYAQKFQGRVIITADESSNTAYMELNSLKSEDTAVYYCAKEGRALLRYFDWLPLDAFDIWGQGTMVTVSS
VL: DIVLTQTPLSLPVSLGDQASISCRSSQSLVHSDGNTYLHWYLQKPGQSPKLLIYKVSNRFSGVPDRFSGSGSGTDFTLKISRVEAEDLGVYFCSQSTHVPPLTFGAGTKLELK
notes: also called 43_S0008 Fab
In the case of B2, the binding result in assay [2] is recorded as “binds”.
